Data set [1] concerns the target T1, rCosRWT (Campylobacter jejuni NCTC 11168) (UniProt Q0PBF4).
T1 sequence: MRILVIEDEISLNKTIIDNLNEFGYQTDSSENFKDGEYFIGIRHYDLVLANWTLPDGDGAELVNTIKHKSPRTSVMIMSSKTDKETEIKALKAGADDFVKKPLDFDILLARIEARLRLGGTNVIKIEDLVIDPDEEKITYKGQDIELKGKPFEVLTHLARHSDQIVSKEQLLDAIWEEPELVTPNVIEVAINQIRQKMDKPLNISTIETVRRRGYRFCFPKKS
Briefly: EMSA. Background: Mobility shift assays separate free from complexed probe on a gel.

The target in data set [2] is T2, rCosRC218S C218S (Campylobacter jejuni NCTC 11168) (UniProt Q0PBF4).
T2 sequence: T1 sequence with C218S
Description: EMSA.

Where a chain is given by its changes, count along the chain named.

With “AATCCTTGCTTGCATTTTCGAAAGTTGCCTTAGCCATTAAAGCTTGTCCGTAAGCTGAATCAACACTAGCTTTAAATTTATCTTGTTCTATAATAAATAATGTTTGTCCTTTTTTTACCTTATCTCCAGCTTTAAAAAGTTTATTTACTATTACGCCGCTAACTTGAGGTT (double strand) [cmeA internal fragment]”, the binding entry in data set [1] is “no binding”.
As for “GCACAACACCTAAAGCTAAAATAGTATTTTTTTGAAATAATTTCATGGTTTTGCCTTGAAAAATTAAATTAAAAATTGTAATTTTTATTACAAAAATTTTTGGCTAATTATATCTTAATTTTGGTTAATAAAATTATTTTTTAAGCTTTGGAGCTATTGATTCCATTTAG (double strand) [11168 cmeABC promoter]”, the binding result in data set [1] is “binds”.
As for “GCACAACACCTAAAGCTAAAATAGTATTTTTTTGAAATAATTTCATGGTTTTGCCTTGAAAAATTAAATTAAAAATTGTAATATTTATTACAGAAATTTTTGGCTAATTATATCTTAATTTTGGTTAATAAAATTATTTTTTAAGCTTTGGAGCTATTGATTCCATTTAG (double strand) [81-176 cmeABC promoter]”, in data set [2], the binding entry is recorded as “binds”.
